Laboratory results published in patent publication US20190127478A1.

Experiments:
[1] = target: Human PD-1 (soluble analyte, Octet RED 96) (human) (UniProt Q15116); test: Octet RED 96
[2] = target: cynomolgus monkey PD-1 (soluble analyte, Octet RED 96) (UniProt B0LAJ3); test: Octet RED 96
[3] = target: human PD1 receptor on Jurkat-PD1-NFAT-Luc2 reporter cells (human) (UniProt Q15116); test: cell-based or functional assay
FcgRIIIaV = test: Octet RED 96
FcRn = test: Octet RED 96
FcgRIIb = test: Octet RED 96
FcgRIIaH = test: Octet RED 96
FcgRIa = test: Octet RED 96

human PD1 receptor on Jurkat-PD1-NFAT-Luc2 reporter cells (human), sequence (Q15116 25-288): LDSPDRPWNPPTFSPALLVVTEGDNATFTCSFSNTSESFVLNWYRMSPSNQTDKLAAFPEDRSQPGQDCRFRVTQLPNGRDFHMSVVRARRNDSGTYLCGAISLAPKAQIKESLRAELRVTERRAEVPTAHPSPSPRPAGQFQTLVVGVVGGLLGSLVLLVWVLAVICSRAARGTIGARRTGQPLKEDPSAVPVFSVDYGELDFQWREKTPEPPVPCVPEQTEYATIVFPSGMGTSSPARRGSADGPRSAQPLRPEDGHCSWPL
Human PD-1 (soluble analyte, Octet RED 96) (human), sequence (Q15116 25-167): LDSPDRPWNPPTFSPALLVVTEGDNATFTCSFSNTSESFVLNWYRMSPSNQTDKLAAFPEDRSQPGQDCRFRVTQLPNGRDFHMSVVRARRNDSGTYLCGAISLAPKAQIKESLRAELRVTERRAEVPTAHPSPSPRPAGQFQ

| Kd [1] [nM] | Kd [2] [nM] | effective dose (ED50), reactivation of NFAT-luciferase luminescence in Jurkat-PD1-NFAT reporter line [3] | Kd (FcgRIIIaV) [nM] | Kd (FcRn) [nM] | Kd (FcgRIIb) [nM] | Kd (FcgRIIaH) [nM] | Kd (FcgRIa) [nM] | Substance |
| --- | --- | --- | --- | --- | --- | --- | --- | --- |
| 0.186 | < 0.001 |  |  |  |  |  |  | BCD-100 |
|  |  | 115 |  |  |  |  |  | BCD-100 (antibody) |
|  |  |  | 5000 | 5.1 | 2300 | 1300 | 50 | Pembrolizumab IgG4 |
|  |  |  | 4200 | 9.52 | 280 | 1600 | 64 | Nivolumab IgG4 |
